Laboratory results as given in US20220305006.

Target: recombinant sAPPα, human, amino acids 19-613 (UniProt P05067)
Sequence (P05067 19-613): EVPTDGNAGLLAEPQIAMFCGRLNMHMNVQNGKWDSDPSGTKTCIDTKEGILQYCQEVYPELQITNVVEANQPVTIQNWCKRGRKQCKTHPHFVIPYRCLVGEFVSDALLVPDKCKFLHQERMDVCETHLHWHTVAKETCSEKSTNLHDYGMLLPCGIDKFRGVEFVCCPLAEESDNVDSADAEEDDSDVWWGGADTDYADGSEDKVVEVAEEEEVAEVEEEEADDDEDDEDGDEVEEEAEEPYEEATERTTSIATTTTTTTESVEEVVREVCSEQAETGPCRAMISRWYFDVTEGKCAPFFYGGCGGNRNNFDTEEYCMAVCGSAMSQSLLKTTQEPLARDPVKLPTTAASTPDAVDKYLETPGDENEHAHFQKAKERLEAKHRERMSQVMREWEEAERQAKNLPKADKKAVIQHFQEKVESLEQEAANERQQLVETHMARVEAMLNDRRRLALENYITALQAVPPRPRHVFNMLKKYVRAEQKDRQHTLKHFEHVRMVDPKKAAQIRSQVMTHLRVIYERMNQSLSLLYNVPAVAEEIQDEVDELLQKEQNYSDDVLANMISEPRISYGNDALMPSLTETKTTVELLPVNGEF

Recombinant Human Cathepsin D, sequence (chain, as listed by the source): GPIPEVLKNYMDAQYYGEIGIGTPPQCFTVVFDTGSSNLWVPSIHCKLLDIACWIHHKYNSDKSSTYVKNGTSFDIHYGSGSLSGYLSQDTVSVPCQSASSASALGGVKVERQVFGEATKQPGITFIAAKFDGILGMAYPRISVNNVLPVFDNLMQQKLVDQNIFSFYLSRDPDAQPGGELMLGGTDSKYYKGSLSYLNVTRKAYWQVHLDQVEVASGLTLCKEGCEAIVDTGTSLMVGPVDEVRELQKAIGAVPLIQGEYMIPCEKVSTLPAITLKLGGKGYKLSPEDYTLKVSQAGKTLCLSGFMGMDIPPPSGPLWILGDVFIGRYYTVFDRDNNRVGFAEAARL

**Q.** Recombinant Human Cathepsin D was tested. Which “Cat D activity (fluorogenic substrate)” value did it give?
**A.** sAPPα elicited no inhibition of Cat D activity
